Experimental data as given in patent US12221465.

Molecular target: empty A2-SABR pulsed with soluble MART1 peptide (…) (Homo sapiens; human) (UniProt P61769)
Test: cell-based or functional assay

## F5 TCR
  fold decrease in antigen sensitivity (concentration of the peptide required for half-maximal signaling), SABR signaling against TCR signaling: 30 fold
